One block for each molecule: values may come before it.
Key:
pancreatic lipase = molecular target: T1, pancreatic lipase (Sus scrofa, UniProt P00591); assay: 4-NPB hydrolysis assay; format: biochemical
T1 sequence (P00591 1-450): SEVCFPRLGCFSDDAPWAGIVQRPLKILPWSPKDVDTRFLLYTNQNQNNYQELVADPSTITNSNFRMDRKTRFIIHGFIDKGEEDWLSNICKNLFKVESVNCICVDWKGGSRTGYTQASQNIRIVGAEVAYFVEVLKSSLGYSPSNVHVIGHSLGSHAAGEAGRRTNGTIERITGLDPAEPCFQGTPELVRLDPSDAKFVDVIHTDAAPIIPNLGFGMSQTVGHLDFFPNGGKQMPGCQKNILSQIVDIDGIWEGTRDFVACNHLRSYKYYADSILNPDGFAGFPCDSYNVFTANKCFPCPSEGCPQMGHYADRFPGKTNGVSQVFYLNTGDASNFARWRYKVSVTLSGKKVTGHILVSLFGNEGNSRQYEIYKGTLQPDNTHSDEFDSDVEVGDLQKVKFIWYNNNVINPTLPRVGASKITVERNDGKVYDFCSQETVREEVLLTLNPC

[1] = substrate: CCCC(=O)Oc1ccc([N+](=O)[O-])cc1; assay: Michaelis-Menten kinetics; format: biochemical, Sus scrofa

IC50 (pancreatic lipase): > 10 µM
Molecule: O=c1c(O)cc([C@H]2Oc3cc(O)cc(O)c3C[C@H]2O)cc2c([C@H]3Oc4cc(O)cc(O)c4C[C@H]3O)cc(O)c(O)c12 [TF, Theaflavin]

B1: pancreatic lipase (Sus scrofa) (protein)
chain: T1 sequence (P00591 1-450)
Km [1]: 149.3 ± 24.2 µM
Vmax [1]: 1.51e-05 ± 1e-06 µmol/min/mg

Source: PMC5228287 (Food chemistry, 2016)
